Source: paper PMC11315935, “Multi-layered heterochromatin interaction as a switch for DIM2-mediated DNA methylation” (Nature Communications, 2024)

B1: DIM2W261A/W581A: DIM2 with W261A/W581A double mutation (protein)
chain: MDSPDRSHGGMFIDVPAETMGFQEDYLDMFASVLSQGLAKEGDYAHHQPLPAGKEECLEPIAVATTITPSPDDPQLQLQLELEQQFQTESGLNGVDPAPAPESEDEADLPDGFSDESPDDDFVVQRSKHITVDLPVSTLINPRSTFQRIDENDNLVPPPQSTPERVAVEDLLKAAKAAGKNKEDYIEFELHDFNFYVNYAYHPQEMRPIQLVATKVLHDKYYFDGVLKYGNTKHYVTGMQVLELPVGNYGASLHSVKGQIAVRSKHNAKKEIYYLLKKPAFEYQRYYQPFLWIADLGKHVVDYCTRMVERKREVTLGCFKSDFIQWASKAHGKSKAFQNWRAQHPSDDFRTSVAANIGYIWKEINGVAGAKRAAGDQLFRELMIVKPGQYFRQEVPPGPVVTEGDRTVAATIVTPYIKECFGHMILGKVLRLAGEDAEKEKEVKLAKRLKIENKNATKADTKDDMKNDTATESLPTPLRSLPVQVLEATPIESDIVSIVSSDLPPSENNPPPLTNGSVKPKAKANPKPKPSTQPLHAAHVKYLSQELVNKIKVGDVISTPRDDSSNTDTKWKPTDTDDHRAFGLVQRVHTAKTKSSGRGLNSKSFDVIWFYRPEDTPCCAMKYKWRNELFLSNHCTCQEGHHARVKGNEVLAVHPVDWFGTPESNKGEFFVRQLYESEQRRWITLQKDHLTCYHNQPPKPPTAPYKPGDTVLATLSPSDKFSDPYEVVEYFTQGEKETAFVRLRKLLRRRKVDRQDAPANELVYTEDLVDVRAERIVGKCIMRCFRPDERVPSPYDRGGTGNMFFITHRQDHGRCVPLDTLPPTLRQGFNPLGNLGKPKLRGMDLYCGGGNFGRGLEEGGVVEMRWANDIWDKAIHTYMANTPDPNKTNPFLGSVDDLLRLALEGKFSDNVPRPGEVDFIAAGSPCPGFSLLTQDKKVLNQVKNQSLVASFASFVDFYRPKYGVLENVSGIVQTFVNRKQDVLSQLFCALVGMGYQAQLILGDAWAHGAPQSRERVFLYFAAPGLPLPDPPLPSHSHYRVKNRNIGFLCNGESYVQRSFIPTAFKFVSAGEGTADLPKIGDGKPDACVRFPDHRLASGITPYIRAQYACIPTHPYGMNFIKAWNNGNGVMSKSDRDLFPSEGKTRTSDASVGWKRLNPKTLFPTVTTTSNPSDARMGPGLHWDEDRPYTVQEMRRAQGYLDEEVLVGRTTDQWKLVGNSVSRHMALAIGLKFREAWLGTLYD
modifications: left off: His6, N-terminal, cleaved | MBP, N-terminal, cleaved
notes: DIM2 with W261A/W581A double mutation
B2: DIM2K362A: DIM2 with H3K9me3-binding site mutation in the RFTS domain (K362A) (protein)
chain: MDSPDRSHGGMFIDVPAETMGFQEDYLDMFASVLSQGLAKEGDYAHHQPLPAGKEECLEPIAVATTITPSPDDPQLQLQLELEQQFQTESGLNGVDPAPAPESEDEADLPDGFSDESPDDDFVVQRSKHITVDLPVSTLINPRSTFQRIDENDNLVPPPQSTPERVAVEDLLKAAKAAGKNKEDYIEFELHDFNFYVNYAYHPQEMRPIQLVATKVLHDKYYFDGVLKYGNTKHYVTGMQVLELPVGNYGASLHSVKGQIWVRSKHNAKKEIYYLLKKPAFEYQRYYQPFLWIADLGKHVVDYCTRMVERKREVTLGCFKSDFIQWASKAHGKSKAFQNWRAQHPSDDFRTSVAANIGYIWAEINGVAGAKRAAGDQLFRELMIVKPGQYFRQEVPPGPVVTEGDRTVAATIVTPYIKECFGHMILGKVLRLAGEDAEKEKEVKLAKRLKIENKNATKADTKDDMKNDTATESLPTPLRSLPVQVLEATPIESDIVSIVSSDLPPSENNPPPLTNGSVKPKAKANPKPKPSTQPLHAAHVKYLSQELVNKIKVGDVISTPRDDSSNTDTKWKPTDTDDHRWFGLVQRVHTAKTKSSGRGLNSKSFDVIWFYRPEDTPCCAMKYKWRNELFLSNHCTCQEGHHARVKGNEVLAVHPVDWFGTPESNKGEFFVRQLYESEQRRWITLQKDHLTCYHNQPPKPPTAPYKPGDTVLATLSPSDKFSDPYEVVEYFTQGEKETAFVRLRKLLRRRKVDRQDAPANELVYTEDLVDVRAERIVGKCIMRCFRPDERVPSPYDRGGTGNMFFITHRQDHGRCVPLDTLPPTLRQGFNPLGNLGKPKLRGMDLYCGGGNFGRGLEEGGVVEMRWANDIWDKAIHTYMANTPDPNKTNPFLGSVDDLLRLALEGKFSDNVPRPGEVDFIAAGSPCPGFSLLTQDKKVLNQVKNQSLVASFASFVDFYRPKYGVLENVSGIVQTFVNRKQDVLSQLFCALVGMGYQAQLILGDAWAHGAPQSRERVFLYFAAPGLPLPDPPLPSHSHYRVKNRNIGFLCNGESYVQRSFIPTAFKFVSAGEGTADLPKIGDGKPDACVRFPDHRLASGITPYIRAQYACIPTHPYGMNFIKAWNNGNGVMSKSDRDLFPSEGKTRTSDASVGWKRLNPKTLFPTVTTTSNPSDARMGPGLHWDEDRPYTVQEMRRAQGYLDEEVLVGRTTDQWKLVGNSVSRHMALAIGLKFREAWLGTLYD
modifications: left off: His6, N-terminal, cleaved | MBP, N-terminal, cleaved
B3: DIM2E649A: DIM2 with mutation in the BAH1 domain (E649A) (protein)
chain: MDSPDRSHGGMFIDVPAETMGFQEDYLDMFASVLSQGLAKEGDYAHHQPLPAGKEECLEPIAVATTITPSPDDPQLQLQLELEQQFQTESGLNGVDPAPAPESEDEADLPDGFSDESPDDDFVVQRSKHITVDLPVSTLINPRSTFQRIDENDNLVPPPQSTPERVAVEDLLKAAKAAGKNKEDYIEFELHDFNFYVNYAYHPQEMRPIQLVATKVLHDKYYFDGVLKYGNTKHYVTGMQVLELPVGNYGASLHSVKGQIWVRSKHNAKKEIYYLLKKPAFEYQRYYQPFLWIADLGKHVVDYCTRMVERKREVTLGCFKSDFIQWASKAHGKSKAFQNWRAQHPSDDFRTSVAANIGYIWKEINGVAGAKRAAGDQLFRELMIVKPGQYFRQEVPPGPVVTEGDRTVAATIVTPYIKECFGHMILGKVLRLAGEDAEKEKEVKLAKRLKIENKNATKADTKDDMKNDTATESLPTPLRSLPVQVLEATPIESDIVSIVSSDLPPSENNPPPLTNGSVKPKAKANPKPKPSTQPLHAAHVKYLSQELVNKIKVGDVISTPRDDSSNTDTKWKPTDTDDHRWFGLVQRVHTAKTKSSGRGLNSKSFDVIWFYRPEDTPCCAMKYKWRNELFLSNHCTCQEGHHARVKGNAVLAVHPVDWFGTPESNKGEFFVRQLYESEQRRWITLQKDHLTCYHNQPPKPPTAPYKPGDTVLATLSPSDKFSDPYEVVEYFTQGEKETAFVRLRKLLRRRKVDRQDAPANELVYTEDLVDVRAERIVGKCIMRCFRPDERVPSPYDRGGTGNMFFITHRQDHGRCVPLDTLPPTLRQGFNPLGNLGKPKLRGMDLYCGGGNFGRGLEEGGVVEMRWANDIWDKAIHTYMANTPDPNKTNPFLGSVDDLLRLALEGKFSDNVPRPGEVDFIAAGSPCPGFSLLTQDKKVLNQVKNQSLVASFASFVDFYRPKYGVLENVSGIVQTFVNRKQDVLSQLFCALVGMGYQAQLILGDAWAHGAPQSRERVFLYFAAPGLPLPDPPLPSHSHYRVKNRNIGFLCNGESYVQRSFIPTAFKFVSAGEGTADLPKIGDGKPDACVRFPDHRLASGITPYIRAQYACIPTHPYGMNFIKAWNNGNGVMSKSDRDLFPSEGKTRTSDASVGWKRLNPKTLFPTVTTTSNPSDARMGPGLHWDEDRPYTVQEMRRAQGYLDEEVLVGRTTDQWKLVGNSVSRHMALAIGLKFREAWLGTLYD
modifications: left off: His6, N-terminal, cleaved | MBP, N-terminal, cleaved

System: (CTA)12/(TAG)12 36-mer DNA duplex
Test: In vitro DNA methylation assay of DIM2 (WT or mutant)
Type: biochemical
Set-up: DNA methylation activity: unit not given here
Details: 30 min, pH 8.0; for DNA methylation activity of DIM2 (in words): 1.0 µM DIM2, 30 °C; for DNA methylation activity: Fig. 6d, H3_1-24K9me3 binding-associated mutants, 1.0 µM DIM2, 1.0 µM DNA duplex, 30 °C

| Molecule | DNA methylation activity of DIM2 (in words) | DNA methylation activity (replicate 1) | DNA methylation activity (replicate 2) | DNA methylation activity (replicate 3) |
| --- | --- | --- | --- | --- |
| B1 | largely abolished the DNA methylation activity | 0.373 | 0.344 | 0.323 |
| B2 | marked decrease of the DNA methylation activity | 1.971 | 1.588 | 1.581 |
| B3 | marked decrease of the DNA methylation activity | 3.26 | 3.183 | 3.28 |
